Consider eight molecules from publication PMC4016012, “Successful Conversion of the Bacillus subtilis BirA Group II Biotin Protein Ligase into a Group I Ligase” (PLoS ONE, 2014).

First the molecules themselves.
T1: BirA (biotin protein ligase, Group II) (Bacillus subtilis 168) (UniProt P0CI75)
T1 sequence: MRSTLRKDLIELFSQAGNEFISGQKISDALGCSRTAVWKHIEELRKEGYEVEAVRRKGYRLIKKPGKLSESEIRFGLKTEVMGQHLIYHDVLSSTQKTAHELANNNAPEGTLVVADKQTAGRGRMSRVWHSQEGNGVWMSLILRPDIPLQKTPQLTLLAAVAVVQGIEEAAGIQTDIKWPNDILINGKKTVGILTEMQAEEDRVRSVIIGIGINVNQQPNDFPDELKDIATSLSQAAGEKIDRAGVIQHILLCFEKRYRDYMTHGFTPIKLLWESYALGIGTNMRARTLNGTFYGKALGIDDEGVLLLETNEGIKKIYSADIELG

B1: B. subtilis N-terminally hexahistidine-tagged Δ2-65 BirA (domain or fragment, Bacillus subtilis, UniProt P0CI75 66-325, looked up)
chain: GKLSESEIRFGLKTEVMGQHLIYHDVLSSTQKTAHELANNNAPEGTLVVADKQTAGRGRMSRVWHSQEGNGVWMSLILRPDIPLQKTPQLTLLAAVAVVQGIEEAAGIQTDIKWPNDILINGKKTVGILTEMQAEEDRVRSVIIGIGINVNQQPNDFPDELKDIATSLSQAAGEKIDRAGVIQHILLCFEKRYRDYMTHGFTPIKLLWESYALGIGTNMRARTLNGTFYGKALGIDDEGVLLLETNEGIKKIYSADIELG
notes: no step that removes the tag is described; Primer SKH047 (BirA 66-325 NdeI F) reads ATGGGAAAACTCAGTGAAAGC, i.e. M-GKLSES; also called BirA 66-325; Δ2-66 BirA (so named in the methods); source: E. coli BL21 (λ DE3) with pSKH020, purified (Ni NTA)
B2: B. subtilis N-terminally hexahistidine-tagged BirA (enzyme, Bacillus subtilis, UniProt P0CI75 1-325, looked up)
chain: T1 sequence
notes: 325 residues by the names of the constructs (64-325 etc.); no step that removes the tag is described; The vector is pET19b, whose own tag may be longer than six histidines and is followed by a linker (surmise); also called wild type BirA; B. subtilis BirA; source: E. coli BL21 (λ DE3) with pSKH001, purified (Ni NTA)

For the first data set, the target named is T1, BirA (biotin protein ligase, Group II) (Bacillus subtilis 168). The data set can be described thus: EMSA. The conditions noted are these: 50 mM Tris-HCl pH 8.0, 1 mM EDTA, 50 mM NaCl, 10% glycerol, 40 nM DNA, 15.6-500 nM BirA, 1 mM ATP, 1 mM MgCl2, 1 uM biotin; room temperature 30 min; 6% gel in ….
Regarding “ATTCAAAGGTTAACAATTAGAATATATTATTCTCTCCTGTTTCTGTCAATAGAAGAAAGGATCGATTTATGGCAGTTGGTTAAAAGGAAACAAAAAGACCGTTTTCACACAAAACGGTCTTTTTC (double strand) [B. subtilis bioO half site]”, the binding entry is on record as “no binding”.
Same read-out and setting: for “CCTTTCACTGATAACTGAAGAACGTGTAGCGCTTCTCACCTAAATTGTTAACCAATTATATTCAAAGGTTAACAATTAGAATATATTATTCTCTCCTGTTTCTGTCAATAGAAGAAAGGATC (double strand) [B. subtilis bioO (bioWAFDBI operator)]” the value was “binds”; for “GGGGCTTCTCCAAAACGTGTTTTTTGTTGTTAATTCGGTGTAGACTTGTAAACCTAAATCTTTTCAATTTGGTTTACAAGTCGATTATGACAACGGACGATCTTGCCTTTGACCAACGCCATATC (double strand) [E. coli bioO]”, “binds more weakly”.
The same measure, in the same setting: for “CCCTTAGGTTGACATACACAATCATAGAGTAATAAAGAACAAAAAGATTGTCAACATGATTTTAAATTAGGTTAACAAAAAGGAGGCCCATATGTATTTCGGAAAAACAAGACAGTCCGATCAAT (double strand) [yuiG operator]” the value was “binds”; for “AACGATCGGGATTTCCATTTTCATCGATTCCAAAATGGCTACCTCCTGGCCCTTTTCGATTTGGTCGCCGGCTTTGACGTGGACTTTCCACAGGTTTCCTGCCATTTGTATGCTAACCGTCATGC (double strand) [non-operator DNA (yngHB/blap internal fragment)]”, “no binding”; for “CCAAAAAGTAATCAAATATGGTTATACAATAAATGCAGGTAATTATTATGTCAACTGATTTTTAATTTAAGTTTACATAATGAACGCAAAAAAACCGGCCGTATGGCAGACCGGTTTTTGATGGT (double strand) [yhfU operator]”, “binds”.

The next data set concerns the molecule itself. The data set can be described thus: cross-linking; purified BirA 30 µM in 50 mM HEPES pH 7.5, 500 mM NaCl, 0.1 mM TCEP, 5% glycerol; with biotin (0.1 mM) and ATP (0.1 mM), room temperature 30 min; EGS 0.125-0.5 mM, room temperature 30 min; SDS-PAGE on 4-20% gels.
Conditions: not given
The stoichiometry N is a count of units in the complex or per binding partner. On to B1, for which the “stoichiometry N” value turned out to be 2.
Same read-out and setting: next, B2: 2.
